Measured values taken from patent US20080279855A1, “Dna Replication Modulating Peptides, Nucleic Acids Encoding Them, and Their Use in Pharmaceutical Compositions” (CENTRE NATIONAL DE LA RECHERCHE SCIENTIFIQUE, priority 2004, published 2008).
“Also recorded” adds a separate entry of the source.

Test system: DNA synthesis in Xenopus egg extracts
Assay: in vitro DNA replication (DNA synthesis inhibition) assay in Xenopus egg extracts, alpha-32P dCTP incorporation
Type: biochemical
Conditions: for inhibition of DNA synthesis (in words): sperm nuclei 3 ng/μl, 2 hours at room temperature
Method: The capacity of a compound to inhibit DNA replication can be measured as described in Example 3, by following the general method given in Blow, J. J. & Laskey, R. A. (1986). Initiation of DNA replication in nuclei and purified DNA by a cell-free extract of Xenopus eggs. Cell 47, 577-87
FIG. 3A represents the activity of HsGeminin deletion mutants. The DNA synthesis inhibition activity of a series of HsGeminin deletion mutant proteins was measured by incubation in Xenopus egg extracts. […] DNA synthesis was measured by incorporation of a radioactive label DNA precursor (dCTP) upon 2 hours incubation at room temperature. Numbers indicate the amino-acids of the HsGeminin protein. LZ=coiled-coil domain.
In order to determine whether a homodimer form of Geminin is functional, the Inventors have tested the ability of this peptide to inhibit DNA synthesis in an in vitro DNA replication assay derived from Xenopus eggs^18.
Briefly, Xenopus egg extracts were prepared as previously described^35. Inhibition assays were carried out in a 20 μl reaction containing 3 ng/μl of sperm nuclei and the indicated amounts of proteins at 1:40 ratio (protein to extract). Replication was measured by incorporation of α^32P dCTP following 2 hours incubation at room temperature.

HsGem-LZ: residues Leu110-Ala145 of human Geminin with an extra N-terminal capping Thr residue, made by Fmoc solid-phase peptide synthesis
interference with DNA synthesis at concentration much higher than wild-type protein (e.g. 320 nM): did not interfere with DNA synthesis | inhibition of DNA synthesis (in words): non-functional

B1: HsGem(80-212): form of HsGeminin (residues 80-212) with the coiled-coil domain plus the entire carboxy-terminal part (protein)
chain: GVTQESFDLMIKENPSSQYWKEVAEKRRKALYEALKENEKLHKEIEQKDNEIARLKKENKELAEVAEHVQYMAELIERLNGEPLDNFESLDNQEFDSEEETVEDSLVEDSEIGTCAEGTVSSSTDAKPCI
inhibition of DNA synthesis (in words): keep the ability of Geminin to inhibit DNA synthesis; also recorded: Full inhibition | inhibition of DNA synthesis (in words) (listed as HsGeminin (residues 80-212)): effective in inhibiting DNA synthesis

B2: wild type protein: total amino acid sequence of human Geminin, about 25 kDa negative regulator of genome replication (protein, listed as Homo sapiens)
chain: MNPSMKQKQEEIKENIKNSSVPRRTLKMIQPSASGSLVGRENELSAGLSKRKHRNDHLTSTTSSPGVIVPESSENKNLGGVTQESFDLMIKENPSSQYWKEVAEKRRKALYEALKENEKLHKEIEQKDNEIARLKKENKELAEVAEHVQYMAELIERLNGEPLDNFESLDNQEFDSEEETVEDSLVEDSEIGTCAEGTVSSSTDAKPCI
inhibition of DNA synthesis (in words): efficiently inhibited DNA synthesis

B3: HsGem(82-145): deletion mutant of human Geminin, residues 82-145, hexahistidine-tagged, expressed in E. coli (protein)
chain: TQESFDLMIKENPSSQYWKEVAEKRRKALYEALKENEKLHKEIEQKDNEIARLKKENKELAEVA
inhibition of DNA synthesis (in words): not functional | inhibition of DNA synthesis (in words) (listed as mutant 82-145): ineffective in inhibiting DNA synthesis

B4: HsGem(82-160): deletion mutant of human Geminin, residues 82-160, hexahistidine-tagged, expressed in E. coli (protein)
chain: TQESFDLMIKENPSSQYWKEVAEKRRKALYEALKENEKLHKEIEQKDNEIARLKKENKELAEVAEHVQYMAELIERLNG
modifications: hexahistidine tag
notes: deletion mutant of human Geminin, residues 82-160, hexahistidine-tagged, expressed in E. coli
inhibition of DNA synthesis (in words): inhibited DNA synthesis, although less efficiently compared to the wild-type protein

B5: HsGem(76-160): deletion mutant of human Geminin, residues 76-160, hexahistidine-tagged, expressed in E. coli (protein)
chain: KNLGGVTQESFDLMIKENPSSQYWKEVAEKRRKALYEALKENEKLHKEIEQKDNEIARLKKENKELAEVAEHVQYMAELIERLNG
modifications: hexahistidine tag
notes: deletion mutant of human Geminin, residues 76-160, hexahistidine-tagged, expressed in E. coli
inhibition of DNA synthesis (in words): Full inhibition
